The subject of the data set is Escherichia coli TOP10. Nature of the data set: shrunken log2 fold change of peptide-encoding DNA abundance (4.5 h post-induction vs induction); higher = less antimicrobial activity (less host growth inhibition). The following applies: time post-induction: 4.5 h; library: site-saturation at positions 5, 18, 19, 20.

Data on 125 sequences can be found in the supplement of paper PMC9112550, “Optimization of the antimicrobial peptide Bac7 by deep mutational scanning” (BMC Biology, 2022).
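Note: peptides expressed intracellularly from a pBAD plasmid library in pooled LB shake-flask culture, induced with 0.3% L-arabinose, DNA abundance read by NGS, three biological replicates, DESeq2 with apeglm shrinkage.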

Take RRIRYRPPRLPRPRPRPARNPRP: the “shrunken log2 fold change” value is -0.0503. For the sequence RRIRMRPPRLPRPRPRPQVNPRP, the “shrunken log2 fold change” value came to 0.166. For the sequence RRIRTRPPRLPRPRPRPGQPPRP, the “shrunken log2 fold change” value was found to be 0.161.

As for RRIRNRPPRLPRPRPRPALCPRP, the “shrunken log2 fold change” value was -0.0208.

Consider RRIRLRPPRLPRPRPRPFRAPRP, for which the “shrunken log2 fold change” value was 0.113. In the case of RRIRARPPRLPRPRPRPIPPPRP, the “shrunken log2 fold change” value amounted to 0.217. As for RRIRPRPPRLPRPRPRPSNIPRP, the “shrunken log2 fold change” value was -1.15. As to RRIRKRPPRLPRPRPRPSPDPRP, the “shrunken log2 fold change” value worked out at 0.344.

Consider RRIRQRPPRLPRPRPRPFWLPRP, for which the “shrunken log2 fold change” value amounted to 0.0473. For RRIRRRPPRLPRPRPRPERSPRP, the “shrunken log2 fold change” value was found to be 0.0187. To RRIRNRPPRLPRPRPRPGPEPRP belongs 0.684; to RRIRKRPPRLPRPRPRPQPMPRP, 0.462. As for RRIRQRPPRLPRPRPRPFDFPRP, the “shrunken log2 fold change” value was -0.404. Regarding RRIRWRPPRLPRPRPRPLTQPRP, the “shrunken log2 fold change” value was 0.307. To RRIRCRPPRLPRPRPRPHLGPRP belongs -0.0785; to RRIRRRPPRLPRPRPRPPDPPRP, 0.707; to RRIRQRPPRLPRPRPRPGYVPRP, -0.116. RRIRDRPPRLPRPRPRPMWRPRP: the “shrunken log2 fold change” value is 0.309. To RRIRKRPPRLPRPRPRPVAEPRP belongs 0.973; to RRIRSRPPRLPRPRPRPVYHPRP, 0.0286; to RRIRQRPPRLPRPRPRPKRFPRP, -0.0339. For RRIRHRPPRLPRPRPRPAPRPRP, the “shrunken log2 fold change” value was found to be 0.749.

On to RRIRKRPPRLPRPRPRPFFVPRP, for which the “shrunken log2 fold change” value is 0.461. As to RRIRRRPPRLPRPRPRPCPMPRP, the “shrunken log2 fold change” value was -0.0862. As to RRIRVRPPRLPRPRPRPRCRPRP, the “shrunken log2 fold change” value is -0.0394. For RRIRERPPRLPRPRPRPQDQPRP, the “shrunken log2 fold change” value is 0.0272.

For the sequence RRIRIRPPRLPRPRPRPIRVPRP, the “shrunken log2 fold change” value is -0.0611. Regarding RRIRGRPPRLPRPRPRPDLDPRP, the “shrunken log2 fold change” value turned out to be 1.21.

Turning to RRIRCRPPRLPRPRPRPKLSPRP, the “shrunken log2 fold change” value turned out to be 0.22.

Regarding RRIRFRPPRLPRPRPRPDHDPRP, the “shrunken log2 fold change” value is -0.217.

Take RRIRERPPRLPRPRPRPDFLPRP: the “shrunken log2 fold change” value came to 0.0309. Take RRIRSRPPRLPRPRPRPQQQPRP: the “shrunken log2 fold change” value is -0.0954. To RRIRYRPPRLPRPRPRPDSTPRP belongs -0.112; to RRIRRRPPRLPRPRPRPLTAPRP, 0.337.

Take RRIRQRPPRLPRPRPRPSEQPRP: the “shrunken log2 fold change” value is 0.155.

Consider RRIRPRPPRLPRPRPRPRIGPRP, for which the “shrunken log2 fold change” value turned out to be 0.0981. In the case of RRIRQRPPRLPRPRPRPMIKPRP, the “shrunken log2 fold change” value was -0.318.

For the sequence RRIRRRPPRLPRPRPRPEAIPRP, the “shrunken log2 fold change” value is 0.445. In the case of RRIRNRPPRLPRPRPRPEYFPRP, the “shrunken log2 fold change” value was -0.0135.

As for RRIRNRPPRLPRPRPRPNHVPRP, the “shrunken log2 fold change” value is -0.117.

Regarding RRIRSRPPRLPRPRPRPFSWPRP, the “shrunken log2 fold change” value is -0.197. As for RRIRERPPRLPRPRPRPSKCPRP, the “shrunken log2 fold change” value is -0.488. To RRIRQRPPRLPRPRPRPQFWPRP belongs 0.681; to RRIRHRPPRLPRPRPRPDADPRP, 0.0435; to RRIRERPPRLPRPRPRPMQKPRP, 0.0175. To RRIRIRPPRLPRPRPRPFLHPRP belongs -0.787; to RRIRRRPPRLPRPRPRPEDFPRP, 0.117; to RRIRYRPPRLPRPRPRPRYPPRP, -0.83.

Take RRIRARPPRLPRPRPRPMLIPRP: the “shrunken log2 fold change” value was found to be 0.0528. Turning to RRIRPRPPRLPRPRPRPPWIPRP, the “shrunken log2 fold change” value was -0.0483. To RRIRCRPPRLPRPRPRPGVNPRP belongs -0.584; to RRIRKRPPRLPRPRPRPVGCPRP, 0.266. On to RRIRTRPPRLPRPRPRPKMCPRP, for which the “shrunken log2 fold change” value came to 0.15. Take RRIRVRPPRLPRPRPRPVTQPRP: the “shrunken log2 fold change” value stood at 0.12.

For the sequence RRIRFRPPRLPRPRPRPCRSPRP, the “shrunken log2 fold change” value turned out to be 0.974. To RRIRQRPPRLPRPRPRPMPVPRP belongs -0.00339. To RRIRTRPPRLPRPRPRPGKQPRP belongs -0.184; to RRIRCRPPRLPRPRPRPYKLPRP, -0.898; to RRIRQRPPRLPRPRPRPRRTPRP, 0.655. With RRIRFRPPRLPRPRPRPMHIPRP, the “shrunken log2 fold change” value is -0.419. On to RRIRARPPRLPRPRPRPVRHPRP, for which the “shrunken log2 fold change” value is 0.399. For the sequence RRIRERPPRLPRPRPRPPNTPRP, the “shrunken log2 fold change” value is -0.284. With RRIRVRPPRLPRPRPRPDRAPRP, the “shrunken log2 fold change” value is -0.0118. As to RRIRARPPRLPRPRPRPLWHPRP, the “shrunken log2 fold change” value was determined as 0.108.

For RRIRKRPPRLPRPRPRPVKYPRP, the “shrunken log2 fold change” value stood at 0.221.

Take RRIRWRPPRLPRPRPRPLTDPRP: the “shrunken log2 fold change” value is -0.0316. In the case of RRIRHRPPRLPRPRPRPFCFPRP, the “shrunken log2 fold change” value is -0.215. As for RRIRQRPPRLPRPRPRPQSVPRP, the “shrunken log2 fold change” value was determined as 0.0191. RRIRHRPPRLPRPRPRPAIKPRP: the “shrunken log2 fold change” value was 0.00883.

Turning to RRIRCRPPRLPRPRPRPARGPRP, the “shrunken log2 fold change” value turned out to be 0.297. As for RRIRVRPPRLPRPRPRPEWLPRP, the “shrunken log2 fold change” value was 0.0685. As for RRIRRRPPRLPRPRPRPSCSPRP, the “shrunken log2 fold change” value was -0.163. Regarding RRIRDRPPRLPRPRPRPSYNPRP, the “shrunken log2 fold change” value was -0.285.

On to RRIRVRPPRLPRPRPRPHCKPRP, for which the “shrunken log2 fold change” value is -0.299.

As to RRIRPRPPRLPRPRPRPAWDPRP, the “shrunken log2 fold change” value worked out at 0.431. Regarding RRIRPRPPRLPRPRPRPMHMPRP, the “shrunken log2 fold change” value was 0.0173. For RRIRWRPPRLPRPRPRPFMFPRP, the “shrunken log2 fold change” value was -0.0915. In the case of RRIRPRPPRLPRPRPRPEPYPRP, the “shrunken log2 fold change” value was -0.309. As for RRIRFRPPRLPRPRPRPCKIPRP, the “shrunken log2 fold change” value was -0.0538. Consider RRIRDRPPRLPRPRPRPRDKPRP, for which the “shrunken log2 fold change” value was -0.0712.

As to RRIRVRPPRLPRPRPRPCELPRP, the “shrunken log2 fold change” value is -0.286. Take RRIRTRPPRLPRPRPRPGEAPRP: the “shrunken log2 fold change” value was 0.282. Regarding RRIRTRPPRLPRPRPRPALWPRP, the “shrunken log2 fold change” value turned out to be 0.213. For RRIRRRPPRLPRPRPRPFSFPRP, the “shrunken log2 fold change” value is -0.0665. As for RRIRIRPPRLPRPRPRPHGPPRP, the “shrunken log2 fold change” value worked out at 0.0659. To RRIRRRPPRLPRPRPRPAIFPRP belongs -0.0696; to RRIRIRPPRLPRPRPRPEIHPRP, -0.0126.

With RRIRDRPPRLPRPRPRPDEKPRP, the “shrunken log2 fold change” value was found to be 0.0291.

Consider RRIRVRPPRLPRPRPRPEPPPRP, for which the “shrunken log2 fold change” value came out at 0.664. In the case of RRIRARPPRLPRPRPRPTGFPRP, the “shrunken log2 fold change” value was determined as 0.105. Turning to RRIRSRPPRLPRPRPRPFIGPRP, the “shrunken log2 fold change” value is -1.15.

As to RRIRPRPPRLPRPRPRPTPKPRP, the “shrunken log2 fold change” value was found to be 0.528. Take RRIRLRPPRLPRPRPRPNGAPRP: the “shrunken log2 fold change” value was found to be 0.0311.

Regarding RRIRNRPPRLPRPRPRPTGCPRP, the “shrunken log2 fold change” value is -0.0633. As for RRIRNRPPRLPRPRPRPGGLPRP, the “shrunken log2 fold change” value is -0.13. As for RRIRLRPPRLPRPRPRPQKAPRP, the “shrunken log2 fold change” value stood at 0.000116. Regarding RRIRGRPPRLPRPRPRPMFAPRP, the “shrunken log2 fold change” value was 1.57. To RRIRGRPPRLPRPRPRPVTFPRP belongs 0.172. Regarding RRIRARPPRLPRPRPRPMGHPRP, the “shrunken log2 fold change” value turned out to be 0.062. As for RRIRHRPPRLPRPRPRPMGTPRP, the “shrunken log2 fold change” value is -0.0597. For the sequence RRIRWRPPRLPRPRPRPHHPPRP, the “shrunken log2 fold change” value was found to be 0.0415. RRIRPRPPRLPRPRPRPSSTPRP: the “shrunken log2 fold change” value was -0.315. RRIRGRPPRLPRPRPRPVIIPRP: the “shrunken log2 fold change” value amounted to 2.29. With RRIRPRPPRLPRPRPRPFYMPRP, the “shrunken log2 fold change” value is -0.324. To RRIRKRPPRLPRPRPRPMESPRP belongs 0.0143; to RRIRRRPPRLPRPRPRPKQCPRP, 0.0754; to RRIRTRPPRLPRPRPRPWWAPRP, -0.134. For RRIRLRPPRLPRPRPRPVWSPRP, the “shrunken log2 fold change” value worked out at 0.0624. Turning to RRIRQRPPRLPRPRPRPVNDPRP, the “shrunken log2 fold change” value was -0.0199. Regarding RRIRARPPRLPRPRPRPWGYPRP, the “shrunken log2 fold change” value was -0.317. In the case of RRIRKRPPRLPRPRPRPNVCPRP, the “shrunken log2 fold change” value is -0.144. On to RRIRDRPPRLPRPRPRPPGFPRP, for which the “shrunken log2 fold change” value came out at 0.348.

For the sequence RRIRQRPPRLPRPRPRPNDQPRP, the “shrunken log2 fold change” value was -0.00615. Turning to RRIRSRPPRLPRPRPRPIFCPRP, the “shrunken log2 fold change” value is -0.0166. RRIRERPPRLPRPRPRPPKWPRP: the “shrunken log2 fold change” value is -0.176. In the case of RRIRARPPRLPRPRPRPDLFPRP, the “shrunken log2 fold change” value was 1.09. Regarding RRIRQRPPRLPRPRPRPSLGPRP, the “shrunken log2 fold change” value was -0.162. On to RRIRERPPRLPRPRPRPCRRPRP, for which the “shrunken log2 fold change” value worked out at 0.0646. As for RRIRERPPRLPRPRPRPPGRPRP, the “shrunken log2 fold change” value worked out at 0.146.

As to RRIRRRPPRLPRPRPRPDLVPRP, the “shrunken log2 fold change” value is 0.0743. To RRIRHRPPRLPRPRPRPILCPRP belongs -0.182.

Regarding RRIRARPPRLPRPRPRPQGNPRP, the “shrunken log2 fold change” value was -0.144.

For RRIRTRPPRLPRPRPRPRMEPRP, the “shrunken log2 fold change” value is -0.0325. To RRIRIRPPRLPRPRPRPFVTPRP belongs -0.938. Regarding RRIRCRPPRLPRPRPRPSEIPRP, the “shrunken log2 fold change” value is -0.321.
